Results from patent US6887467B1, “Double mutants of dihydrofolate reductase and methods of using same” (Sloan-Kettering Institute for Cancer Research, priority 1996, dated 2005).
Read-outs that look alike come from different tables or passages of the source.

B1: wild type: wild-type human dihydrofolate reductase, leucine at amino acid 22 and phenylalanine at amino acid 31 (protein, UniProt P00374 1-187, looked up)
Dihydrofolate reductase: MVGSLNCIVAVSQNMGIGKNGDLPWPPLRNEFRYFQRMTTTSSVEGKQNLVIMGKKTWFSIPEKNRPLKGRINLVLSRELKEPPQGAHFLSRSLDDALKLTEQPELANKVDMVWIVGGSSVYKEAMNHPGHLKLFVTRIMQDFESDTFFPEIDLEKYKLLPEYPGVLSDVQEEKGIKYKFEVYEKND

Legend:
[1] = tested on: human DHFR (wild type and variants); assay: Inhibition constants (Ki) of antifolates for DHFR variants from steady state reaction rates; type: biochemical; conditions: for Ki Kcat/km relative: relative to wt = 1, MTX
From the text: The first parameter, Ki, is the “inhibition constant” and reflects the level of inhibition by a given compound. Ki, is obtained from steady state reaction rates observed for mixtures of enzyme, cofactor. 7,8-dihydrofolate (the normal substrate) and variable levels of antifolate. The higher the value of Ki, the higher the concentration of antifolate required to inhibit the activity of the enzyme on the normal substrate.
(§1) The parameters Km and kcat can be combined to provide a measure of overall catalytic efficiency which is given by kcat/Km. High levels of catalytic efficiency are preferred.

[2] = tested on: human DHFR (wild type and variants); assay: Kinetic parameters (Km, kcat) of purified DHFR variants with 7,8-dihydrofolate; type: biochemical
Method: Km or the “Michaelis constant” reflects the ability of an enzyme to convert a given substrate to product. In this case, the substrate is the normal substrate, 7,8-dihydrofolate. Km is determined using a double reciprocal plot of the initial velocity of the reaction as a function of the concentration of the substrate. Higher values of Km reflect a decreased affinity for the normal substrate.
kcat reflects the catalytic turnover of the enzyme. kcat values are obtained by active site titration experiments using MTX or from activity and total protein measurements of purified enzyme species.
as §1
Enzyme expressed by the transformed E. coli was purified using an MTX-affinity column, followed by DEAE-Sephacel column chromatography.

| Molecule | Ki Kcat/km relative [1] | Ki ([1]; inhibitor aminopterin, read-out: Ki APT) [pM] | Ki ([1]; inhibitor methotrexate, read-out: Ki (MTX)) [pM] | Ki ([1]; inhibitor piritrexin, read-out: Ki PTX) [pM] | Ki ([1]; inhibitor trimetrexate, read-out: Ki TMTX) [pM] | Ki Kcat/km ([1]; product of Ki (MTX) and catalytic efficiency) [s⁻¹] | kcat [2] [s⁻¹] | Km ([2]; substrate 7,8-dihydrofolate, read-out: Km (H2folate)) [µM] |
| --- | --- | --- | --- | --- | --- | --- | --- | --- |
| N[C@@H](Cc1ccc(O)cc1)C(=O)O [22 tyrosine, reference compound] | 104 |  |  |  |  |  |  |  |
| B1 | 1 | 1.8 | 1.2 | 132 | 13 | 0.191 | 12.7 | 0.08 |
